Measurements: paper PMC8123555, “Precision targeting of the plasminogen activator inhibitor‐1 mechanism increases efficacy of fibrinolytic therapy in empyema” (Physiological Reports, 2021)

Columns and labels:
FITC‐fibrin = assay: Fibrinolytic activity in pleural fluids (FITC-fibrin film assay), empyema; type: in vivo, rabbit; conditions: PAI-1-TFT with 2.0 mg/kg DSP, infectious pleural injury; for Steady-state level of pleural fluid fibrinolytic activity: relative to supplemented baseline
Protocol: A Pilot Fibrinolytic Assay (FPA96F) was used to measure fibrinolytic potential (Beckert et al., 2019; Florova et al., 2015) and fibrinolytic activity (Florova et al., 2015, 2018; Komissarov et al., 2016) in pleural fluid samples. To prepare a FITC‐fibrin film, a 1:1 mixture of FITC‐tagged and unlabeled fibrinogen (0.4 mg/ml) in 0.05 M Hepes/NaOH (pH 7.5, 130 mM NaCl, 5 mM CaCl2) buffer at room temperature was transferred to black 96‐well flat bottom plates from Costar (Corning Inc, NY). Human thrombin (final concentration 10 nM) was added to each well and plates were dried overnight in a dark chemical hood at room temperature. 96‐well plates with FITC‐fibrin film were washed three times with 0.3 ml of cold Hepes/NaOH buffer and stored at −20°C up to one year. Fibrinolytic activity in pleural fluids was calculated from the slopes of time‐dependences of an increase in the fluorescence emission at 512 nm (excitation at 490 nm) due to the degradation of FITC‐fibrin. Fibrinolytic potential was determined as the difference between fibrinolytic activity in samples of pleural fluid at baseline (BL) or 24 h measured with and without supplementation with sctPA (Florova et al., 2015). To determine whether PAI‐1‐TFT affects fibrinolytic potential in rabbits, BL values were plotted against fibrinolytic potential at 24 h and the linear correlation was determined using Sigmaplot 14.0.

[1] = tested on: plasminogen activating activity in pleural fluid; assay: Intrapleural inactivation of tPA and uPA plasminogen activating activity, TCN-induced injury; type: in vivo, rabbit; conditions: during PAI-1-TFT of chemically induced pleural injury; slower phase, 10-40 min
Protocol: (§1) Amidolytic activity was measured in clear 96‐well flat bottom plates from Costar (Corning Inc.) using a Synergy™ HT Hybrid Reader (BioTek, Winooski, VT). Amidolytic activity was calculated from the initial slopes of the time traces of the change in absorbance at 405 nm upon hydrolysis of chromogenic as described previously (Komissarov et al., 2009, 2013). The plasminogen activating activity was determined from the relative rate of activation of exogenous Glu‐plasminogen added to the reaction mixture containing 0.1–0.5 µl of pleural fluid in 0.1 ml of Hepes buffer solution with BSA (1 mg/ml) as previously described (Florova et al., 2013, 2018). The reaction mixtures (0.1 ml in black 96‐well flat bottom plates from Costar) contained 100 nM of human Glu‐plasminogen with 0.2 mM of SN‐5 plasmin fluorogenic substrate (HTI, Essex Junction, VT). Plasmin activity was measured by recording changes in the fluorescence emission at 470 nm (F470) with time (excitation at 352 nm) using a Synergy™ HT Hybrid Reader (BioTek, Winooski, VT). The level of plasminogen activating activity [PA] was calculated from slopes of linear dependences of F470 from square of time (t^2) (F470 = A [PA] t^2 + B; where A and B are constants), and results of measurements of standards with known concentrations of tcuPA and tctPA as previously described (Komissarov et al., 2009, 2013). […]

[2] = tested on: Streptococcus pneumoniae induced empyema; conditions: higher in empyema; ref Idell et al., 2007; cited from earlier work
Description: (§2) Plasminogen Activator Inhibitor‐1 (PAI‐1) is a mechanism‐based inhibitor of tissue type (tPA) and urokinase (uPA) plasminogen activators (PAs) (Carrell et al., 1991; Chaillan‐Huntington et al., 1997; Mourik et al., 1984) used for fibrinolytic therapy. Levels of PAI‐1 increase by up to three orders of magnitude in empyema (pleural sepsis), and organizing pleural injury (Aleman et al., 2003; Chung et al., 2005; Philip‐Joet et al., 1995), limiting endogenous and exogenous plasminogen activating activity that could help prevent or treat uncontrolled fibrin deposition induced by inflammation. First, DSP alone was used to treat pleural injury in both models to determine its effects on the endogenous fibrinolytic system. The results (Figure 2) clearly indicate that even a relatively high dose of DSP (2.0 mg/kg) is insufficient to mobilize endogenous fibrinolysis effectively once pleural injury has developed; there was no reversal effect with DSP alone. DSP alone, even at a 4‐fold higher dose (8.0 mg/kg), was also ineffective (GLIS>10) in treatment of empyema (Figure 2). Next, PAI‐1‐TFT with ...

[3] = tested on: chemically induced (TCN) pleural injury; conditions: bolus, ref Idell et al., 2007; cited from earlier work
Description: as §2

[4] = tested on: plasminogen activating activity in pleural fluid; assay: Intrapleural inactivation of tPA and uPA plasminogen activating activity, empyema; type: in vivo, rabbit; conditions: infectious pleural injury
Protocol: as §1

Substance | kobs of decrease in pleural fluid fibrinolytic activity to steady state (FITC‐fibrin) [min⁻¹] | Steady-state level of pleural fluid fibrinolytic activity (FITC‐fibrin) [%] | kobs of intrapleural inactivation of plasminogen activating activity [1] [min⁻¹] | MED for empyema relative to MED in TCN-induced pleural injury [2] [fold] | Minimal effective dose (MED) of plasminogen activator alone [3] [mg/kg] | kobs of intrapleural inactivation ([4]; with 2.0–8.0 mg/kg DSP) [min⁻¹] | kobs of intrapleural inactivation ([4]; with 2.0 mg/kg DSP) [min⁻¹]
Alteplase [sctPA, reference compound] | 0.48 ± 0.07 | 1.5 | 0.02 to 0.05 | 13.8 | 0.145 | 0.024 ± 0.010 | 
Prourokinase [scuPA] | 0.16 ± 0.06 | 2.5 | 0.02 to 0.05 | 4 | 0.5 |  | 0.014 ± 0.008
